Measurements from the Human Domainome abundance scans (Beltran et al. 2025).
± gives the uncertainty stated by the source.

B1: Tumor protein p73, residues 487 to 549; numbered along this chain, O15350 (parent)
chain: YHADPSLVSFLTGLGCPNCIEYFTSQGLQSIYHLQNLTIEDLGALKIPEQYRMTIWRGLQDLK

Variants of: B1
Experiment: abundance fitness (aPCA) (normalised: wild type 0, dead -1); higher = more abundant; growth selection in yeast, the domain comes from the species named
Details: Homo sapiens

Variant | abundance fitness
YHADPSLVSFLTGLGCPNCIEYYTSQGLQSIYHLQNLTIEDLGALKIPEQYRMTIWRGLQDLK [F23Y] | -0.638 ± 0.12
YHADPSLVSFLTGLGCPNCIEYFASQGLQSIYHLQNLTIEDLGALKIPEQYRMTIWRGLQDLK [T24A] | -0.02 ± 0.039
YHADPSLVSFLTGLGCPNCIEYFCSQGLQSIYHLQNLTIEDLGALKIPEQYRMTIWRGLQDLK [T24C] | -0.097 ± 0.081
YHADPSLVSFLTGLGCPNCIEYFDSQGLQSIYHLQNLTIEDLGALKIPEQYRMTIWRGLQDLK [T24D] | -0.198 ± 0.062
YHADPSLVSFLTGLGCPNCIEYFESQGLQSIYHLQNLTIEDLGALKIPEQYRMTIWRGLQDLK [T24E] | -0.108 ± 0.037
YHADPSLVSFLTGLGCPNCIEYFFSQGLQSIYHLQNLTIEDLGALKIPEQYRMTIWRGLQDLK [T24F] | -0.212 ± 0.079
YHADPSLVSFLTGLGCPNCIEYFHSQGLQSIYHLQNLTIEDLGALKIPEQYRMTIWRGLQDLK [T24H] | -0.123 ± 0.12
YHADPSLVSFLTGLGCPNCIEYFKSQGLQSIYHLQNLTIEDLGALKIPEQYRMTIWRGLQDLK [T24K] | -0.013 ± 0.056
YHADPSLVSFLTGLGCPNCIEYFLSQGLQSIYHLQNLTIEDLGALKIPEQYRMTIWRGLQDLK [T24L] | -0.037 ± 0.039
YHADPSLVSFLTGLGCPNCIEYFMSQGLQSIYHLQNLTIEDLGALKIPEQYRMTIWRGLQDLK [T24M] | 0.018 ± 0.044
YHADPSLVSFLTGLGCPNCIEYFNSQGLQSIYHLQNLTIEDLGALKIPEQYRMTIWRGLQDLK [T24N] | -0.224 ± 0.13
YHADPSLVSFLTGLGCPNCIEYFPSQGLQSIYHLQNLTIEDLGALKIPEQYRMTIWRGLQDLK [T24P] | -0.461 ± 0.13
YHADPSLVSFLTGLGCPNCIEYFQSQGLQSIYHLQNLTIEDLGALKIPEQYRMTIWRGLQDLK [T24Q] | -0.086 ± 0.056
YHADPSLVSFLTGLGCPNCIEYFRSQGLQSIYHLQNLTIEDLGALKIPEQYRMTIWRGLQDLK [T24R] | -0.083 ± 0.031
YHADPSLVSFLTGLGCPNCIEYFSSQGLQSIYHLQNLTIEDLGALKIPEQYRMTIWRGLQDLK [T24S] | -0.007 ± 0.042
YHADPSLVSFLTGLGCPNCIEYFVSQGLQSIYHLQNLTIEDLGALKIPEQYRMTIWRGLQDLK [T24V] | -0.077 ± 0.038
YHADPSLVSFLTGLGCPNCIEYFWSQGLQSIYHLQNLTIEDLGALKIPEQYRMTIWRGLQDLK [T24W] | -0.187 ± 0.037
YHADPSLVSFLTGLGCPNCIEYFYSQGLQSIYHLQNLTIEDLGALKIPEQYRMTIWRGLQDLK [T24Y] | -0.206 ± 0.15
YHADPSLVSFLTGLGCPNCIEYFTAQGLQSIYHLQNLTIEDLGALKIPEQYRMTIWRGLQDLK [S25A] | 0.03 ± 0.036
YHADPSLVSFLTGLGCPNCIEYFTCQGLQSIYHLQNLTIEDLGALKIPEQYRMTIWRGLQDLK [S25C] | 0.012 ± 0.059
YHADPSLVSFLTGLGCPNCIEYFTDQGLQSIYHLQNLTIEDLGALKIPEQYRMTIWRGLQDLK [S25D] | -0.074 ± 0.14

Variant | abundance fitness
YHADPSLVSFLTGLGCPNCIEYFTEQGLQSIYHLQNLTIEDLGALKIPEQYRMTIWRGLQDLK [S25E] | 0.129 ± 0.046
YHADPSLVSFLTGLGCPNCIEYFTFQGLQSIYHLQNLTIEDLGALKIPEQYRMTIWRGLQDLK [S25F] | -0.197 ± 0.069
YHADPSLVSFLTGLGCPNCIEYFTGQGLQSIYHLQNLTIEDLGALKIPEQYRMTIWRGLQDLK [S25G] | 0.029 ± 0.031
YHADPSLVSFLTGLGCPNCIEYFTIQGLQSIYHLQNLTIEDLGALKIPEQYRMTIWRGLQDLK [S25I] | -0.195 ± 0.054
YHADPSLVSFLTGLGCPNCIEYFTKQGLQSIYHLQNLTIEDLGALKIPEQYRMTIWRGLQDLK [S25K] | 0.046 ± 0.044
YHADPSLVSFLTGLGCPNCIEYFTLQGLQSIYHLQNLTIEDLGALKIPEQYRMTIWRGLQDLK [S25L] | -0.055 ± 0.034
YHADPSLVSFLTGLGCPNCIEYFTMQGLQSIYHLQNLTIEDLGALKIPEQYRMTIWRGLQDLK [S25M] | -0.051 ± 0.047
YHADPSLVSFLTGLGCPNCIEYFTNQGLQSIYHLQNLTIEDLGALKIPEQYRMTIWRGLQDLK [S25N] | 0.001 ± 0.1
YHADPSLVSFLTGLGCPNCIEYFTPQGLQSIYHLQNLTIEDLGALKIPEQYRMTIWRGLQDLK [S25P] | -0.179 ± 0.052
YHADPSLVSFLTGLGCPNCIEYFTQQGLQSIYHLQNLTIEDLGALKIPEQYRMTIWRGLQDLK [S25Q] | 0.051 ± 0.043
YHADPSLVSFLTGLGCPNCIEYFTWQGLQSIYHLQNLTIEDLGALKIPEQYRMTIWRGLQDLK [S25W] | -0.361 ± 0.041
YHADPSLVSFLTGLGCPNCIEYFTYQGLQSIYHLQNLTIEDLGALKIPEQYRMTIWRGLQDLK [S25Y] | -0.266 ± 0.082
YHADPSLVSFLTGLGCPNCIEYFTSAGLQSIYHLQNLTIEDLGALKIPEQYRMTIWRGLQDLK [Q26A] | 0.079 ± 0.037
YHADPSLVSFLTGLGCPNCIEYFTSCGLQSIYHLQNLTIEDLGALKIPEQYRMTIWRGLQDLK [Q26C] | -0.057 ± 0.052
YHADPSLVSFLTGLGCPNCIEYFTSDGLQSIYHLQNLTIEDLGALKIPEQYRMTIWRGLQDLK [Q26D] | -0.2 ± 0.086
YHADPSLVSFLTGLGCPNCIEYFTSEGLQSIYHLQNLTIEDLGALKIPEQYRMTIWRGLQDLK [Q26E] | 0.011 ± 0.038
YHADPSLVSFLTGLGCPNCIEYFTSFGLQSIYHLQNLTIEDLGALKIPEQYRMTIWRGLQDLK [Q26F] | -0.18 ± 0.077
YHADPSLVSFLTGLGCPNCIEYFTSGGLQSIYHLQNLTIEDLGALKIPEQYRMTIWRGLQDLK [Q26G] | -0.034 ± 0.035
YHADPSLVSFLTGLGCPNCIEYFTSHGLQSIYHLQNLTIEDLGALKIPEQYRMTIWRGLQDLK [Q26H] | 0.035 ± 0.085
YHADPSLVSFLTGLGCPNCIEYFTSIGLQSIYHLQNLTIEDLGALKIPEQYRMTIWRGLQDLK [Q26I] | -0.163 ± 0.33
YHADPSLVSFLTGLGCPNCIEYFTSKGLQSIYHLQNLTIEDLGALKIPEQYRMTIWRGLQDLK [Q26K] | 0.032 ± 0.048
